Assay results published in US7771961B2, “Cytochrome c acetylation” (Elixir Pharmaceuticals, Inc, priority 2002, dated 2010).

B1: recombinant GST-SIRT2: recombinant GST fusion of human SIRT2, NAD-dependent deacetylase (protein)
chain: MAEPDPSHPLETQAGKVQEAQDSDSDSEGGAAGGEADMDFLRNLFSQTLSLGSQKERLLDELTLEGVARYMQSERCRRVICLVGAGISTSAGIPDFRSPSTGLYDNLEKYHLPYPEAIFEISYFKKHPEPFFALAKELYPGQFKPTICHYFMRLLKDKGLLLRCYTQNIDTLERIAGLEQEDLVEAHGTFYTSHCVSASCRHEYPLSWMKEKIFSEVTPKCEDCQSLVKPDIVFFGESLPARFFSCMQSDFLKVDLLLVMGTSLQVQPFASLISKAPLSTPRLLINKEKAGQSDPFLGMIMGLGGGMDFDSKKAYRDVAWLGECDQGCLALAELLGWKKELEDLVRREHASIDAQSGAGVPNPSTSASPKKSPPPAKDEARTTEREKPQ
modifications: left off: a dimerising Fc or GST
notes: recombinant GST fusion of human SIRT2, NAD-dependent deacetylase
B2: recombinant GST-SIRT3: recombinant GST fusion of a fragment of human SIRT3 lacking the first 100 amino acids of the N-terminus (protein)
chain: SISFSVGASSVVGSGGSSDKGKLSLQDVAELIRARACQRVVVMVGAGISTPSGIPDFRSPGSGLYSNLQQYDLPYPEAIFELPFFFHNPKPFFTLAKELYPGNYKPNVTHYFLRLLHDKGLLLRLYTQNIDGLERVSGIPASKLVEAHGTFASATCTVCQRPFPGEDIRADVMADRVPRCPVCTGVVKPDIVFFGEPLPQRFLLHVVDFPMADLLLILGTSLEVEPFASLTEAVRSSVPRLLINRDLVGPLAWHPRSRDVAQLGDVVHGVESLVELLGWTEEMRDLVQRETGKLDGPDK
modifications: left off: a dimerising Fc or GST
notes: recombinant GST fusion of a fragment of human SIRT3 lacking the first 100 amino acids of the N-terminus
B3: cell derived SIRT3: SIRT3 enzyme derived from pull down of 293T cell extracts (protein)
chain: MAFWGWRAAAALRLWGRVVERVEAGGGVGPFQACGCRLVLGGRDDVSAGLRGSHGARGEPLDPARPLQRPPRPEVPRAFRRQPRAAAPSFFFSSIKGGRRSISFSVGASSVVGSGGSSDKGKLSLQDVAELIRARACQRVVVMVGAGISTPSGIPDFRSPGSGLYSNLQQYDLPYPEAIFELPFFFHNPKPFFTLAKELYPGNYKPNVTHYFLRLLHDKGLLLRLYTQNIDGLERVSGIPASKLVEAHGTFASATCTVCQRPFPGEDIRADVMADRVPRCPVCTGVVKPDIVFFGEPLPQRFLLHVVDFPMADLLLILGTSLEVEPFASLTEAVRSSVPRLLINRDLVGPLAWHPRSRDVAQLGDVVHGVESLVELLGWTEEMRDLVQRETGKLDGPDK
modifications: left off: large carriers
notes: SIRT3 enzyme derived from pull down of 293T cell extracts

Tests used:
[1] = tested on: chemically acetylated cytochrome c; assay: titrated acetate release assay of deacetylation activity; assay type: biochemical; settings: in vitro, in the presence and absence of NAD
Procedure: (§1) The activity of these proteins was determined in vitro using either a ^14C-nicotinamide release assay or a titrated acetate release assay.
(§2) Recombinant GST-SIRT2 deacetylation activity was tested on chemically acetylated cytochrome c in the presence and absence of NAD. Deacetylation activity was determined in vitro using a titrated acetate release assay.
as §2, with “GST-SIRT3” for “GST-SIRT2”, “NAD. The recombinant SIRT3 was a fragment of human SIRT3 lacking the first 100 amino acids of the N-terminus of full length human SIRT3.” for “NAD.”

[2] = tested on: chemically acetylated cytochrome c; assay: 14C-nicotinamide release assay of deacetylation activity; assay type: biochemical; settings: in vitro, enzyme from pull down of 293T cell extracts, GFP as control
Procedure: as §1
Cell derived GST-SIRT3 deacetylation activity was tested on chemically acetylated cytochrome c. The SIRT3 was derived from “pull down” 293T extracts.
Deacetylation activity was determined in vitro using a ^14C-nicotinamide release assay. Deacetylation was determined for GFP (control) with chemically acetylated cytochrome c, SIRT3-GFP with chemically acetylated cytochrome c, and SIRT3-GFP with histone 4.

Molecule | deacetylation activity on chemically acetylated cytochrome c [1] | deacetylation activity on chemically acetylated cytochrome c [2]
B1 | deacetylates cytochrome c in a NAD dependent manner | 
B2 | deacetylates cytochrome c in a NAD dependent manner | 
B3 |  | deacetylates cytochrome c
